This is an account of results in the DeepSol protein solubility set.

This data set is described as follows: soluble on expression in E. coli; label from the status in PepcDB or PDB records.
With “MGSDKIHHHHHHDFEELNTNPFEMTDEMGIRDGVAVGGAVMAMQRAVITVGTQADDTEAINQYQVAYNLSADSWSGFFGQNNNWYSGSNNTTYYLQDNWVAATYTNSYTTLLSSWKKIKQESEKNETPEIFALAQILKISAWHKTLESFGPIPYTHAGEPALVIPFDSEQVAFNAMFADLTAAIEALTVRAEQGATIVADYDAVYAGDTRKWVKYANSLMLRLAMRISYADETTAQKYARQALNHPFGVMTSKSDEAQMSTGAGMVFRNNIDWLANQYNECRMGSSMFSYLLGYQDPRLSAYFEASPSAYAVAAFDGKNYQAVPPGNANQQNTIYTDFSKPNITSNTPTYWMRASEVYFLRAEAALRWGSEFGDAEALYEQGVATSFDENGISSSVDDYLAFGLTPIAHNMRASYYSYNAAAPTTATPAFSGGTEQKLEKIMIQKWIALYPNGHEAWTEWRRTGYPKLNQVQTNRGQGVTREGGIRRMVYPVSFYQSAEDRANYEEALKLLGGLDKDKATTQLWWDCKNKIY”, the “soluble on expression in E. coli” value is given as “not soluble”.
“MGSDKIHHHHHHDPVSDITDLNYWKTPEQFDSFVFGLHSRFRSHSWNMFLLGEARSDVFGGIPFGGEATQGMERFPYNTLNAENPGISGFGDLYQNINQMNLFISRTLHTDVLTESARNYYLGQVYGLRAYYMYQLYRSWGDVVFTEEPSLGFEVGKLAKAATPAAEIFEQVKKDIESSLSYFGSDYTIKEKKSLWSKAATLMLKADVYLWSAHRDGGEGDARTAKNALVDIQNNISRSNLDLMDTYQGVFAYDNKGNKEIIFTIHNELFEYNLWNGNNDLFPQADYLGKFYNADGTLINTSVENNFGIMRLMVKLENFKKFLPGDTRRDVTLKDVYNKVENGKLELVGVYPHKYWGVMNGSTRVRCDDYPIYRYSDLLLMLAEAKVLLGEDPATEINRVRRRAFGDAYDASTVGFPNQEVDKRPADAVLQERLFEFMLEGKRWYDLRRFGDSYVLDYTPAEPARLLWPINQGALTNNPLLKQTVGY”: the “soluble on expression in E. coli” value was “not soluble”.
As to “MGSDKIHHHHHHEIMTRENNDQETLKLIQENKLQAEGNIFANVSALKDQNKRFQDECHSEKKQFGIKVEETTAQNNDEVLKESAQTNHIKLGNQQNKLTHESRIMALKEGNTVTKIHVGQAQEKDRKETNFIAAVNRMIQAGRDLPETVDSLEGHTLKLRYGSDASALESDIGLCEIIVSSINRKISKLQDSCIDLSNYAIADHRMVQEMQKNALGINESVRRIQSHLTQFRVSLSDNPITNSMELYKKVQTESHSLSTKINSMPVVTETNHAVAYLRKQRETLALNLPTVA”, the “soluble on expression in E. coli” value is on record as “not soluble”.
Next, “MGSDKIHHHHHHEKAVTHSESKEFKPETVKIGEDGELNIVPLYAPYQTYLKASLKADTSETDSKNYAEYVLRYIDKIGEKENFDPTTLETFFMLKATAYEQDMLNQTNELMKQHDEIKDIITKNYSASYEALPKKKATIFIAPSNLEFWSMTDPLAGVSGAAFQDSIIIQLNPNFDKEVLAYTIAHEYHHLVLNDTPELSRIDTSLDSVIFEGKADAFADQIVTDVSPPWNIPMDDTTKKHVARLIGNGEADYQEITMGNTEKDIPLWSRYSLGRDILTHHLKANPDLSIKTWTYEENHAILNGYKYQKLLE”: “not soluble”.
Turning to “MGSDKIHHHHHHENLYFQGMNIETLMIKNPPILSKEDRLGSAFKKINEGGIGRIIVANEKIEGLLTTRDLLSTVESYCKDSCSQGDLYHISTTPIIDYMTPNPVTVYNTSDEFTAINIMVTRNFGSLPVVDINDKPVGIVTEREFLLLYKDLDEIFPVKVFMSTKVQTIYKEVRLDQAVKLMLRRGFRRLPVIDDDNKVVGIVTVVNAIKQLAKAVDKLDPDYFYGKVVKDVMVTNLVTIDELASVNRAAAEMIVKRIGSLLILNKDNTIRGIITERDLLIALHHILVMEKFKEKL”, the “soluble on expression in E. coli” value is recorded as “soluble”.
Next, “MGSDKIHHHHHHETTSTQTVDEQAVFNDTQSAMLAVNGLHKLMWTGDLSSSAFYGGYDMLMIWYEVMGDDLVYTYSNAQFQKQAQWSSHRNATIGSATHFYRLLQYFISNSSMIIDNIDAAEGLESERNYIKGQAHFYRAFAYFTMVQMYGGRYKAEGDNTQLGVVIRNDNSTEPRARASVEEVYTQINEDIDLAIQLLGATEEKRTNKSHIDLHVARGLKARILLTQGKWLEAAEMAKLVVDLSGAKLQDDTYTTLNDRFSDQSNTEWLWGSNPLLQQAPNLTHFHGYMSNEIISYNGNTPRAIYNKLYDKISDTDVRKGIWFPRATDPNTLPRPIRAECNSKAYANYMANKFIVSDPTTKGGRDVPFMRLPEMMLIMAEGYARAGEPGKAAQALYPLASHRDPEYTLSTKTGENLIEEVMTQRRIELWGEGFRWFDLKRLNMDLDRGPAPRPEVFPNGLIEYWNKDAMPKVVDPEASNYNMYGDGTVTGNGNRYRPAGHRDWQWAIPDKETQLNPLCEPNP”: “not soluble”; “MGSDKIHHHHHHGQNQNKIQEAMANYDYETAVELINKEPPTIPLLMQKAKALKGIGSNAEALRSIRQVIAEDSTNQQAHIEAAECCKAMAKYNDALDYYRKAISLNPKNKYARLQFINLLCNTKNYAEAFGESSMMSETDSSAVVLHLQAQSLEGMQQILPAIGCYEVIQDKYPDDYLAAAKLGNLNIVAGYPEYAIQATERYRERDSTNLIVNQQNALAYCHAEQYPTAIKRYEKLCQQGDSSTQTLYYLGVSYYADEYYYEAHACFSKLQKEMEENPNLLYYLGRCCAKTSWKKEGIEHLEKAIELTIPKDSTMIRLYKGLVDCCKLAQDTPKQIQALRELYKYDKTNHKLLYDIAWNYSYQLKDNKSAERYLQAFLKTRKANARKEEPVSEKGELVLGLENYYNAAENWLKDLQKEKFFKEGIPLESQKQ”: “not soluble”.
Take “MGSDKIHHHHHHILLDYVESLVLSSVFPKRDFLSPTSNYLNGLKEVLYYQIFPERFANGDPSNDPNGSQSWDVDPAYANLGGDGFFGGDLKGIIDHFDHILELGVEAIYLNPIFESPSSHKYDTEDYLKIDDNFGNDYVFEEFISLAEDSGIKLILDGVFNHTGYDFFAFKDLREREETSPYKDWYFVKRFPIRKIQDRAMTYVGWNGYAYMPKVNSLNEGWQAYVERLVRKYNLEGIGGWRLDVATEVDPLFWSGFFRPLVKSLEKDMILVAEFWGDARSLLRGKTFDSAMNYPFKEAVIEYVFRAGNSAAKFAAMTNLYLNAYPPQTLHSLWNILDSHDTERILTLAFNQVDLLKIAVAIQMTFIGSPVIYYGDEVGMKGGKDPENRAPMLWDEEKWNWEIYDFYKTLIDLRRTHESIKDGEYEVLTAEGPVFSFRRWKDSEEVIVVINPSRENAFFNPEFEGEFCEYLSGRSISFFENKAEITPLTVWILVQED”: the “soluble on expression in E. coli” value is reported as “not soluble”.
Next, “MGSDKIHHHHHHKEQNLDDFEQEYQNYQVNDPLSGYNKAMTSFNVALYDYGLRPVLKGYNAITPEFIRLGARNFFDNLLAPLRFVSNVLQFKFEEAGEEFKRFTANTIMGFGGLMDVASKMGLKKHPADLGTVLAHWGVGSGFHIVLPILGPSNLRDTLTLPATWYASFTAYIDPTWASIAISAYGFGNELSFRLDEIDEIYHNTPNLYPFLRDAYEQRRNELSK”: “not soluble”.
To “MGSDKIHHHHHHKKAVINDSNTPLHLLQPAYQGTYGDLTPEQVKKDIDRVFAYIDKETPARVVDKNTGKVITDYTAMGDEAQLERGAFRLASYEWGVTYSALIAAAETTGDKRYTDYVQNRFRFLAEVAPHFKRVYEEKGKTDSQLLQILTPHALDDAGAVCTAMIKLRLKDESLPVDGLIQNYFDFIINKEYRLADGTFARNRPQRNTLWLDDMFMGIPAVAQMSRYDKEAKNKYLAEAVKQFLQFADRMFIPEKGLYRHGWVESSTDHPAFCWARANGWALLTACELLDVLPEDYPQRPKVMDYFRAHVRGVTALQSGEGFWHQLLDCNDSYLETSATAIYVYCLAHAINKGWIDAIAYGPVAQLGWHAVAGKINEEGQVEGTCVGTGMAFDPAFYYYRPVNVYAAHGYGPVLWAGAEMIRLLNTQHPQMNDSAVQYYQEKQKTTAPIFAVDSE” belongs “not soluble”; to “MGSDKIHHHHHHKTEEHEKIEVLYETTLNLIHLLVEQGVIKQEVADEMIRKAEQKAKASQQQAREQGGQPPAGEPKKGEVRVTYVPEHIKKEIRDQLREEVVGQAKQERWGNVNATPEWLDRFTLEGDIRLREQADFFGDRNAPAANFQAIGQQIDNTTKDSHHRERIRMRLGINANVTRGVDLGLRLTTGNVNGPAVTGDLMGGSPTSTLQTLGTYNSKFSFVLDQAYLKLSPWDWLTVSGGRFPNPFFVGTVGNIYTGTIGKAPHTIPTAGVVHTDLLWDADVNFEGLAVNLHPWKKQERTIKPFLNAGIFPLQKINQSETVKAKDKWFYGAQAGIEWVPEGADTKIRLGAAYYDFENISGVRNPNFGDTLFNQTAPLFRQKGNSLFNIDNDGDPTTNLWALASDYKIANATLVADYSRFKPIHVIGTLDYARNVGYDQDRILARTGQDIKPEINAYQARLTVGYPVISERHQWQVLGFYRRSERDSMLDAFTDSNYLLGGTNHKGYTIQGLYGVAHNTWVGLRYMSYDNISGLPLSIDSVNLDLNARF”, “not soluble”; to “MGSDKIHHHHHHLAIINDYWSTQAEAFTEISVDELTSEKNALWKSILKPFVQTDRKLEILDVGCGAGFFEIFLSCLGHHVTAVDFNGKMLAEARKNIEKLGRPELTKLMQMDAQNLAFQDSVFDIVISRNMTWVLENPQRAYGEWLRVLKPHGKLINFDANWFLHLRDDTARRNFEEGQAAVVEHGFELKESDHGGELDNIFRELPLSGCWRPQWDFMTLANMGCEEIAVKFSLPKGLYDEYYEQLYKAIPTFMLCAVKTG”, “not soluble”.
As for “MGSDKIHHHHHHLAKRKNHAQAIETTGANLGFEPQLWQTANALRGSMDAAEYKHVVLGLIFLKYISDAFEEHRERLQNIPNADPEDPDEYRADNVFWVPPDARWVELRNNARQPNIGELIDQAMIAVERDNPSLKGVLPKDYARPALDQQRLGQLIDLVSNIPVGTASARSKDVLGRVYEYFLSQFASAEGKKGGEFYTPRCVVRLLVEMLEPYQGRVYDPCCGSAGMFIQSVEFIEAHATGNGNGSRARARISIYGQELNYTTWRLAKMNLAIRGIDGRIEQGDTFRNDRFPDLKADYILANPPFNMKEWGGEQLRNDKRWQYGIPPVGNANFAWVQHIVHHLAPAGVAGFVLANGSMSSNQSGEGEIRRKLIEADLVDCMVALPGQLFYSTQIPACLWFLARNRNNGKFRDRRKQILFIDARRLGRMVDRIHRELTDEEIERIACTYHAWRGESDAGEYRDIPGFCKSASLEDVRKHGYVLTPGRYVGSEVREDDDEPFAEKMQWLVAQLREQQAEAAKLDEAIVANLQELGFWEQKR”, the “soluble on expression in E. coli” value is given as “not soluble”.
As for “MGSDKIHHHHHHLAQLYFYYSAMNAGKSTSLLQSSYNYRERGMNTLVLTAAIDDRYGVGKVASRIGIQADATVFGSEDNLMDLIATHHSQQQLHCVLVDESQFLSKTQVRQLTDVVDKLDIPVLCYGLRSDFRGELFIGSQYLLAWADKLVELKTICFCGRKANMVVRRDGAGNPVRDGAQVAIGGNESYESMCRKHFSELVWD”, the “soluble on expression in E. coli” value is listed as “not soluble”.
As for “MGSDKIHHHHHHLDLAPEDYYGAGNFWKEASQPKAFMLGLHAQLRSYYDMFYTLGELRGGTQRVGTSSLNTSLNYADIRSQNISEDIPGISNWNGLYSPIMQVNHFIQEVENGCTFLDDATRSRYLGQAYGMRALYYFMLYRTFGGVPLITKVDILDGKPSADKFYVERATPEATMEFIKADINKSENYFGNNTSFDAYDWSRYATLMLKAEIYMWAAKVSITGFTATGATDLQTAKTALSGIIGHFELMDNFASIFSCDNKKNTEIIFAMPFIEGEASNDGGRFLYQDAVFLGQAYGRNGKVIEKDTLNLKGTGGVFRDEYTEDFWKTFKEGDSRRDATFMEYYMKNDNGTLSEFGCVMKKRIGTINSNDNRIYISDIPVYRYADALLMMAEIENGLNNPCASYINEVRKRAYGDTFEENKYTEGSYAENELAILQERDKEFVSEGKRWFDVLRMHDASGRSLVFSANANYPGTNPILGTEEAYKMLWPVNIGTLNVNPLLTQTPGYGKK”, the “soluble on expression in E. coli” value is listed as “not soluble”.
